Values quoted from earlier work in patent US20110020368A1, “TREATING CANCER BY DOWN-REGULATING FRIZZLED-4 AND/OR FRIZZLED-1” (priority 2008, published 2011).

System: breast tumor cell lines
Conditions: interference with autocrine WNT pathway activation

B1: sFRP1: extracellular inhibitor of WNT signaling, which competes with FZD receptors for ligand binding (protein, UniProt Q8N474 32-314, looked up)
Secreted frizzled-related …: SEYDYVSFQSDIGPYQSGRFYTKPPQCVDIPADLRLCHNVGYKKMVLPNLLEHETMAEVKQQASSWVPLLNKNCHAGTQVFLCSLFAPVCLDRPIYPCRWLCEAVRDSCEPVMQFFGFYWPEMLKCDKFPEGDVCIAMTPPNATEASKPQGTTVCPPCDNELKSEAIIEHLCASEFALRMKIKEVKKENGDKKIVPKKKKPLKLGPIKKKDLKKLVLYLKNGADCPCHQLDNLSHHFLIMGRKVKSQYLLTAIHKWDKKNKEFKNFMKKMKNHECPTFQSVFK
For B1, the “Effect on proliferation of breast tumor cell lines” value is listed as “blocks proliferation”.
